Measurements reported in paper PMC4267639, “The Mtr4 ratchet helix and arch domain both function to promote RNA unwinding”.

Assays:
Test in all cases: fluorescence anisotropy; 0.5 mM MgCl2; FA: 40 mM MOPS pH 6.5, 100 mM NaCl, 0.5 mM MgCl2, 5% glycerol, 0.01% NP-40 substitute, 2 mM DTT, 60 nM RNA, 30 C; EMSA conditions not in material
Conditions in all cases: protein: recombinant; tags: vector pET151/D-TOPO; label: 3' fluorescein on R16; 3' overhang 6 nt (UAAAAA) on R22A, other end blunt; 16 bp
[1] = molecular target: T1, Mtr4 WT (Saccharomyces cerevisiae, UniProt P47047)
T1 sequence: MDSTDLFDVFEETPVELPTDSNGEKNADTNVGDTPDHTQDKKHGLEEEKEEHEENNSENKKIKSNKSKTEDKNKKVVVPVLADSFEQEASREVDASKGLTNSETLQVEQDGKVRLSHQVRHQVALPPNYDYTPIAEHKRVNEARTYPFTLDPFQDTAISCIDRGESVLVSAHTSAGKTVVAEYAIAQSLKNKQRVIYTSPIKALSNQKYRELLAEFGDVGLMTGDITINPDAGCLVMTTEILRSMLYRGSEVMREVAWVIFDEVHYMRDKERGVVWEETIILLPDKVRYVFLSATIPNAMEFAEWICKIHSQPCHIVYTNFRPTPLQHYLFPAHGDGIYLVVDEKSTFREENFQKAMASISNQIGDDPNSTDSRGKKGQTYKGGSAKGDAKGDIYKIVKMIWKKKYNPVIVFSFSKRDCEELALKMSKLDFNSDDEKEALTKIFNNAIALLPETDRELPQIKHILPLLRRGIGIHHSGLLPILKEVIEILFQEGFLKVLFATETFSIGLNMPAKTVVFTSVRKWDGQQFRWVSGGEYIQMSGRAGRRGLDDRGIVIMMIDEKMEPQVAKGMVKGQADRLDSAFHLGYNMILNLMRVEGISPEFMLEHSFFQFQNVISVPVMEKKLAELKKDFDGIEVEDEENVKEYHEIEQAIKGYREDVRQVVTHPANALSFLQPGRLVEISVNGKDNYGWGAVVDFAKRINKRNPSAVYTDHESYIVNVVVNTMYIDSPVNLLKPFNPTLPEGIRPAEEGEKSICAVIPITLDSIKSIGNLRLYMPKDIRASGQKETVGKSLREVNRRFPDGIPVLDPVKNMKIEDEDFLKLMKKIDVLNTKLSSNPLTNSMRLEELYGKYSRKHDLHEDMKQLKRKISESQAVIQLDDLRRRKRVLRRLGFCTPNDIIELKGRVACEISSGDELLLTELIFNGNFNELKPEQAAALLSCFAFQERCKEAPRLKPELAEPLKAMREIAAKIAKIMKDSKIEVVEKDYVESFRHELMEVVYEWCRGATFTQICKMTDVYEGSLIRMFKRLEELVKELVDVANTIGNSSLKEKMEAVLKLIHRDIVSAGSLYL

[2] = molecular target: T2, Mtr4 E1033A (Saccharomyces cerevisiae, UniProt P47047 1-1073, E1033A)
T2 sequence: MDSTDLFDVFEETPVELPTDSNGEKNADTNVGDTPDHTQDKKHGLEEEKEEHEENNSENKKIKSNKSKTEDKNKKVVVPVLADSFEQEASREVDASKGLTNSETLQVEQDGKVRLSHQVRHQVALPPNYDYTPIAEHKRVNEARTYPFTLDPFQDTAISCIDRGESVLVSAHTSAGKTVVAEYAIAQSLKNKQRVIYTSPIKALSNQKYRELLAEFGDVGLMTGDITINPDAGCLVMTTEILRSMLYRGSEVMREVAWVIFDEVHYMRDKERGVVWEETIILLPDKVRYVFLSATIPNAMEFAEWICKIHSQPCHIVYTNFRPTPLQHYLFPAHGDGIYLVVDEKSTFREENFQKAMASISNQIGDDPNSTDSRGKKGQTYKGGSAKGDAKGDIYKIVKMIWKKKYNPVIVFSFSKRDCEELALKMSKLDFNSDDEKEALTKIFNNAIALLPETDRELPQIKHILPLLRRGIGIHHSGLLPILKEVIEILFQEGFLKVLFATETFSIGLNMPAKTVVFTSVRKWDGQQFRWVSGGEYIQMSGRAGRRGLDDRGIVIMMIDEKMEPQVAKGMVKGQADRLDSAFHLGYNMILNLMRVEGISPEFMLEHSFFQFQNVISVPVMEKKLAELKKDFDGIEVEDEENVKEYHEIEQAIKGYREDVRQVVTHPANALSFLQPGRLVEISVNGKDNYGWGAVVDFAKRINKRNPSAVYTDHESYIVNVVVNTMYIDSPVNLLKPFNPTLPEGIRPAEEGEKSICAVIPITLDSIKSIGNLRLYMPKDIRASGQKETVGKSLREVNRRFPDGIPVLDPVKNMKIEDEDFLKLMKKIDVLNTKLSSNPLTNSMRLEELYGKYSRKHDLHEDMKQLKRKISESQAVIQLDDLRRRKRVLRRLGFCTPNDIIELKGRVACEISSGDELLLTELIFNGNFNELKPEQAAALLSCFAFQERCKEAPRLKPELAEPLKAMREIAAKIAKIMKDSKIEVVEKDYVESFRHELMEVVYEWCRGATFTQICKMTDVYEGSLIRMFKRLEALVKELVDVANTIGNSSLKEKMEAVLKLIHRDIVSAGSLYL

[3] = molecular target: T3, Mtr4 R1030A (Saccharomyces cerevisiae, UniProt P47047 1-1073, R1030A)
T3 sequence: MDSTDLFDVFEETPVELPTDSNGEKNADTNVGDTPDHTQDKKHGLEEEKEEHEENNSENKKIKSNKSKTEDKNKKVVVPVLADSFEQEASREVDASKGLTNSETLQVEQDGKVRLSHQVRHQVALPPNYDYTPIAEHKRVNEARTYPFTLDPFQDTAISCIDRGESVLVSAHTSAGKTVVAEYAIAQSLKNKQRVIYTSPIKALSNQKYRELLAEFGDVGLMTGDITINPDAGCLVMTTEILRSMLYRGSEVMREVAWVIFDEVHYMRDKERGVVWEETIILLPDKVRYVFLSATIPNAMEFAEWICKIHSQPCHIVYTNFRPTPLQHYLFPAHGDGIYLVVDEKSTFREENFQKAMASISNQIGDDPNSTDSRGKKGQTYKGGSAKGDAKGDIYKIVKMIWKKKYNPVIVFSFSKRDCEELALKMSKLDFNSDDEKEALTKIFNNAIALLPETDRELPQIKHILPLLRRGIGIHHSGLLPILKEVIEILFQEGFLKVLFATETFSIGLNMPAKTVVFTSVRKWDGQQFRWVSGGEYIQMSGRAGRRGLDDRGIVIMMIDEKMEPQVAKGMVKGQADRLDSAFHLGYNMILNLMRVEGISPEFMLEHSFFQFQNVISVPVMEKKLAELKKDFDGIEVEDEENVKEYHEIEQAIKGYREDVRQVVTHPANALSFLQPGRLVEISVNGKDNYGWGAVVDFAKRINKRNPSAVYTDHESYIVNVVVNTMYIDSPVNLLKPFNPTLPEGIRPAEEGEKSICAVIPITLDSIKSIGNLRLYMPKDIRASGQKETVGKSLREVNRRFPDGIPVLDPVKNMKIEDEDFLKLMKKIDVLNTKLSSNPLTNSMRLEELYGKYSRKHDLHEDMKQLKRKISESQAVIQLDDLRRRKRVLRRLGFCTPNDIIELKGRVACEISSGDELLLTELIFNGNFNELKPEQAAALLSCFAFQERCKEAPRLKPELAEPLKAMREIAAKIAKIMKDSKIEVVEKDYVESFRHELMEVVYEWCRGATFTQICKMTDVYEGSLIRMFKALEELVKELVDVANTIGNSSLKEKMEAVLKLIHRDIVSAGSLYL

B1: poly(A) substrate R22A/R16, fluorescein (dsRNA)
RNA 1: GCGUCUUUACGGUGCUUAAAAA
RNA 2: AGCACCGUAAAGACGC
For B1, the Kd [1] was 2800 ± 900 nM, the Kd [2] was 2000 ± 600 nM and the Kd [3] was 2600 ± 1000 nM.
